B2: human hemoglobin, heme-loaded (holo-Hb) (complex)
chain 1: not shown
chain 2: not shown

How the values were obtained:
[1] = biological target: B2; assay: NMR titration
[2] = biological target: T1, Shr^H1H2 (Shr residues S26 to Q285, both HIDs) (Streptococcus pyogenes, UniProt Q99YA0 26-285); assay: SEC-MALS + other: SEC-SAXS
T1 sequence: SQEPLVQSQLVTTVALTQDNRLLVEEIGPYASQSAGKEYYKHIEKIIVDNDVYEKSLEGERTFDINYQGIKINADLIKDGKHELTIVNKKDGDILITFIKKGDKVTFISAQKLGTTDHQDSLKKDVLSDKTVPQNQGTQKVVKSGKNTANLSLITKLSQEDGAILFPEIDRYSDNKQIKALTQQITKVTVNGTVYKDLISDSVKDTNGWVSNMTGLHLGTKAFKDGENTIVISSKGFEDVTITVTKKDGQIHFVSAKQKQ

B1: Shr^H2 M238A (domain or fragment)
chain: NLSLITKLSQEDGAILFPEIDRYSDNKQIKALTQQITKVTVNGTVYKDLISDSVKDTNGWVSNATGLHLGTKAFKDGENTIVISSKGFEDVTITVTKKDGQIHFVSAKQKQ
binding result [1]: binds

B2
stoichiometry N [2]: 2 Shr^H1H2 per Hb tetramer

— PMC9945957 (Proceedings of the National Academy of Sciences of the …, 2023)
